Test results as given in paper doi:10.1101/2021.04.04.438383 (bioRxiv, 2021).

Molecular target: the molecule itself
Experiment: dynamic light scattering

Row | Protein | binding result
1 | recombinant Arc S67D, GST tag cleaved (natural protein) MELDHMTTGGLHAYPAPRGGPAAKPNVILQIGKCRAEMLEHVRRTHRHLLTEVSKQVERELKGLHRDVGKLENNLDGYVPTGDSQRWKKSIKACLCRCQETIANLERWVKREMHVWREVFYRLERWADRLESMGGKYPVGSEPARHTVSVGVGGPEPYCQEADGYDYTVSPYAITPPPAAGELPEQESVEAQQYQSWGPGEDGQPSPGVDTQIFEDPREFLSHLEEYLRQVGGSEEYWLSQIQNHMNGPAKKWWEFKQGSVKNWVEFKKEFLQYSEGTLSREAIQRELELPQKQGEPLDQFLWRKRDLYQTLYVDAEEEEIIQYVVGTLQPKLKRFLRHPLPKTLEQLIQRGMEVQDGLEQAAEPSGTPLPTEDETEALTPALTSESVASDRTQPE | binds
2 | recombinant Arc T278D, GST tag cleaved (natural protein) MELDHMTTGGLHAYPAPRGGPAAKPNVILQIGKCRAEMLEHVRRTHRHLLTEVSKQVERELKGLHRSVGKLENNLDGYVPTGDSQRWKKSIKACLCRCQETIANLERWVKREMHVWREVFYRLERWADRLESMGGKYPVGSEPARHTVSVGVGGPEPYCQEADGYDYTVSPYAITPPPAAGELPEQESVEAQQYQSWGPGEDGQPSPGVDTQIFEDPREFLSHLEEYLRQVGGSEEYWLSQIQNHMNGPAKKWWEFKQGSVKNWVEFKKEFLQYSEGDLSREAIQRELELPQKQGEPLDQFLWRKRDLYQTLYVDAEEEEIIQYVVGTLQPKLKRFLRHPLPKTLEQLIQRGMEVQDGLEQAAEPSGTPLPTEDETEALTPALTSESVASDRTQPE | binds
